Source: patent US10407712B2, “Methods, compositions and kits for high throughput kinase activity screening using mass spectrometry and stable isotopes” (President and Fellows of Harvard College, priority 2008, dated 2019)

How the values were obtained:
[1] = molecular target: T1, recombinant RSK1 (Homo sapiens, UniProt Q15418); experiment: In vitro peptide phosphorylation by purified RSK; assay type: biochemical; settings: 100 μM peptide, individually reacted
T1 construct: 90 kDa ribosomal S6 kinases 1 (RSK1, 1-735); purchased Cell Signaling Technology (Danvers, Mass.)
T1 sequence (Q15418 whole entry): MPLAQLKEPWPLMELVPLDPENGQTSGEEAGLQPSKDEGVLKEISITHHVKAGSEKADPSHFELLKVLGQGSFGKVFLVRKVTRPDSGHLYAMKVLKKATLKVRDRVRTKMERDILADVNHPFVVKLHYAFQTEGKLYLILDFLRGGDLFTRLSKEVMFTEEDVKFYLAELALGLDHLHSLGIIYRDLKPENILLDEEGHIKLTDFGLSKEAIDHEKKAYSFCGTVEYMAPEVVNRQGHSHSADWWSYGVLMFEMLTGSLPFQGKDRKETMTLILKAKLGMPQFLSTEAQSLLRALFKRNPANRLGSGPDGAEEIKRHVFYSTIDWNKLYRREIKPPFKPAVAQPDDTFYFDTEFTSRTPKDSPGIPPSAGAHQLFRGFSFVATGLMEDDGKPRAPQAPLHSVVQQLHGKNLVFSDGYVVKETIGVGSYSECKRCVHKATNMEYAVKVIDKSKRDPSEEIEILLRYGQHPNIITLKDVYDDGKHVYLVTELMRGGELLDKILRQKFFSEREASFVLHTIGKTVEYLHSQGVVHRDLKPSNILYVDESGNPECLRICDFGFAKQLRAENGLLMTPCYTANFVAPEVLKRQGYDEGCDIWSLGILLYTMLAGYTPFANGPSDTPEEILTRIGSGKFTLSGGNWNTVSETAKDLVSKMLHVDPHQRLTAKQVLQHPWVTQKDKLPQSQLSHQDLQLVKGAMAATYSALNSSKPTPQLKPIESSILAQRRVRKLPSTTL
Description: (§1) Reaction mixture was supplemented with 0.1% BSA. Other conditions were the same as in FIG. 10A.
(§2) Purified human active kinases of Akt1 (full length), extracellular signal-regulated kinase 1 (ERK1, 1-379), mitogen-activated protein kinase kinase 1 (MEK1, 1-393), 90 kDa ribosomal S6 kinases 1 (RSK1, 1-735), cAMP-dependent protein kinase (PKA) catalytic subunit-α (PKA Cα, 1-351), protein kinase Cα (PKCα, full length), epidermal growth factor (EGF) receptor (EGFR, 672-1210), platelet-derived growth factor (PDGF) receptor α (PDGFRα, 550-1090), vascular endothelial growth factor (VEGF) receptor 1 (VEGFR1 784-1338), Src (full length), casein kinase 2 (CK2, full length), Aurora A (1-403), AMP-activated protein kinase α1β1γ1 (AMPK α1β1γ1, full length), glycogen synthase kinase-3α (GSK-3α, 1-483) and MAP/microtubule affinity-regulating kinase 1 (MARK 1, full length) were obtained from Cell Signaling Technology (Danvers, Mass.). Cdc2/cyclin B1 (full length) and insulin-like growth factor (IGF)-I receptor (IGFIR, 959-1367) were obtained from Upstate (Temecula, Calif.).
Peptides were synthesized, purified and quantified as described in Yu et al. 2009 Proc Natl Acad Sci USA 106: 11606-11611, hereby incorporated by reference herein in its entirety. […] Alternatively, reactions were performed using 6 μg cell lysate aliquotes mixed to a final volume of 20 μl. Cell lysate or other kinase source was added to the substrate mixture in 25 mM Tris-Cl, pH 7.5, containing 5 mM ATP, 7.5 mM MgCl2, 0.2 mM EGTA, 7.5 mM β-glycerophosphate, 0.1 mM Na3VO4, and 0.1 mM DTT. The reaction was incubated at 25° C. for 60 min and then terminated by the addition of 100 μl of 1% trifluoroacetic acid (TFA) containing a known amount of an internal standard (typically 20 pmol). Alternatively, the reaction was incubated at 20° C. for 45 min before termination with TFA.
It was observed that basal phosphorylation of these peptides was not affected by knockdown and likely was the result of remaining RSK isoforms or other basophilic kinases (FIG. 5C).

[2] = tested on: HEK293 cell lysates; experiment: KAYAK in vitro kinase assay, individual reactions, lysates of starved, insulin- or EGF-stimulated HEK293 cells; assay type: biochemical, human
Experimental: For stimulation of HEK293 cells or HeLa lines, cells were treated with insulin (100 nM; 10-30 min) EGF (50 ng/ml; 10 min) or phorbol 12-myristate 13-acetate (PMA; 50 or 100 ng/ml; 10 -30 min) at 37° C. for the indicated times after overnight serum-starvation.
For cell lysis, the media were removed, and cells were washed with ice-cold phosphate-buffered saline (PBS) and lysed with ice-cold lysis buffer (10 mM K2HPO4 pH 7.5, 1 mM EDTA, 10 mM MgCl2, 50 mM β-glycerophosphate, 5 mM EGTA, 0.5% Nonidet P-40, 0.1% Brij 35, 0.1% deoxycholic acid, 1mM sodium orthovanadate, 1mM phenylmethyl-sulfonyl fluoride, 5 μg/ml leupeptin and 5 μg/ml pepstatin A). Lysates were centrifuged at 10,000 rpm for 10 min to remove cell debris, and clear supernatant was used for immunoblotting and in vitro kinase assays. Protein concentration was determined by Bradford assay (Biorad, Hercules, Calif.).
Peptides were synthesized, purified and quantified as described in Yu et al. 2009 Proc Natl Acad Sci USA 106: 11606-11611, hereby incorporated by reference herein in its entirety. Each substrate peptide (250 pmol) was mixed to a final concentration of 5 μM in the 50 μL reaction mixture. Alternatively, reactions were performed using 6 μg cell lysate aliquotes mixed to a final volume of 20 μl. Cell lysate or other kinase source was added to the substrate mixture in 25 mM Tris-Cl, pH 7.5, containing 5 mM ATP, 7.5 mM MgCl2, 0.2 mM EGTA, 7.5 mM β-glycerophosphate, 0.1 mM Na3VO4, and 0.1 mM DTT. The reaction was incubated at 25° C. for 60 min and then terminated by the addition of 100 μl of 1% trifluoroacetic acid (TFA) containing a known amount of an internal standard (typically 20 pmol). Alternatively, the reaction was incubated at 20° C. for 45 min before termination with TFA.
Forty-five individual in vitro kinase reaction mixtures were combined and desalted by using Sep-Pak C18 cartridge (Waters, Milford, Mass.). Phosphopeptides were enriched by immobilized metal ion chromatography (IMAC) with 20 μl of beads (Phos-Select iron affinity gel; Sigma, St. Louis, Mo.) and subsequently desalted by using Empore C18 solid phase extraction disks (3M, St. Paul, Minn.) as described previously.
Quantitation of the target peptide-internal standard ratios was performed by first constructing the extracted ion chromatogram for the most abundant charge state for each peptide using a ±10 ppm window. Chromatograms were integrated using Qual/Quan browser (Xcalibur 2.0.5, Thermo Fisher, San Jose, Calif.). Since the phosphorylated peptides generated from the in vitro kinase reactions were chemically identical to the internal standards, they were assumed to have the same ionization efficiency. Therefore, the amount of each phosphorylated peptide was calculated by direct ratio to the internal standard level.
To test substrate suitability in a multiplexed assay, the phosphorylation activities were measured using […] of each substrate peptide, 6 μg lysate, and 5 mM ATP in a plate format. Reactions proceeded for 60 minutes followed by acidification and the addition of isotope-labeled reference peptides. After pooling 45 samples, phosphopeptide enrichment was followed by liquid-chromatography (LC) separation and on-line peptide detection by high-resolution mass spectrometry.
The ability of the peptides to report specific changes in kinase activation after pathway stimulation was examined herein. Lysates from HEK293 cells were collected after insulin or EGF treatment and were compared to their activities in the serum-starved state using the KAYAK approach. Western blot analysis of lysates from cells in which the PI3K and MAPK pathways were activated, as indicated by elevated phospho-Akt and phospho-ERK1/2 levels, respectively, is shown in FIG. 1D. […]

[3] = molecular target: T2, activated, purified Akt (Homo sapiens, UniProt P31749); experiment: In vitro peptide phosphorylation by purified Akt; assay type: biochemical; settings: 100 μM peptide, individually reacted
T2 construct: Purified human active kinases of Akt1 (full length); purchased Cell Signaling Technology (Danvers, Mass.)
T2 sequence (P31749 whole entry): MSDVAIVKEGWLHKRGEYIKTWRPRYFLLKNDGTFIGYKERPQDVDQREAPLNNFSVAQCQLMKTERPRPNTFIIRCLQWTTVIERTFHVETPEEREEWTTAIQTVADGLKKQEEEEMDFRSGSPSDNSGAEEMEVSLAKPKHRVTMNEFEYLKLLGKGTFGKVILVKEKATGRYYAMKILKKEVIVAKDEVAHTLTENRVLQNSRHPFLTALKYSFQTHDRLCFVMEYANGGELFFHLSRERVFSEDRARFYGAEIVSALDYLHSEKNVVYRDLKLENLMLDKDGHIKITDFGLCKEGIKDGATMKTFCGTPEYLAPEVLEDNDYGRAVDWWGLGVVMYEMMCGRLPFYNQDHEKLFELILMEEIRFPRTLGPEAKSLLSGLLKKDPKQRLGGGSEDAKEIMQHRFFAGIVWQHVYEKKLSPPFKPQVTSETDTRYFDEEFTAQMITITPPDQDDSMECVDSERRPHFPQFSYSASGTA
Description: as §1, §2
Peptides were synthesized, purified and quantified as described in Yu et al. 2009 Proc Natl Acad Sci USA 106: 11606-11611, hereby incorporated by reference herein in its entirety. […] Alternatively, reactions were performed using 6 μg cell lysate aliquotes mixed to a final volume of 20 μl. […]

## RIRTQSFSLQPFR (The sequence was designed and synthesized) [F6]
[1]
  phosphorylation by RSK: strong phosphorylation
[2]; EGF-stimulated compared to starved HEK293 cells
  E: changed phosphorylation in EGF stimulated condition: ++ (A change of more than +4 and −4 fold is indicated by “++” and “−−”, respectively.)
[2]; insulin-stimulated compared to starved HEK293 cells
  I: changed phosphorylation in insulin stimulated condition: + (A change of more +2 fold and −2 fold is indicated by “+” and “−”, respectively.)
[3]
  phosphorylation by Akt: strong phosphorylation
